Reference: patent publication US20220146515A1 (XIAMEN INNODX BIOTECH, published 2022)

Legend:
[1] = target: T1, AMH truncated antigen 51-65 (human); assay: competition ELISA, antibody preincubated with target, AMH-coated plate
T1 peptide: QEPLCLVALGGDSNG
Experimental: (§1) 1. AMH antigen was diluted with carbonic acid buffer (20 mmol/L CB, pH 9.6) and then coated on a polyvinyl chloride plate. In the pretreatment, the antibody purified by the protein A column and the synthesized AMH truncated antigen sequences (see Table 3 for each synthetic sequence) were subjected to proportion incubation (100 ng/ml antibody: 50 ug/ml truncated antigen) for 30 minutes, that were test samples; the control sample was 100 ng/ml antibody: PBS, incubation for 30 minutes, and then the test samples after incubation and the control sample were added to AMH antigen plate and incubated for 30 minutes, the plate was washed for 5 times, added with GAM-HRP (1/5000 dilution) and incubated for 30 minutes, the plate was washed for 5 times, and the substrate was added and incubated for 15 minutes. The values under wavelength of 450/620 were read by microplate reader, and the detected OD values were finally calculated and analyzed. The calculation formula was: (control sample OD value−test sample OD value)/control sample OD value, and the criterion for determination was as follows: more than 90%, which indicated a good competitive effect, showing that the antibody should recognize the epitope.

[2] = target: T2, AMH truncated antigen 36-45 (human); assay: as above
T2 peptide: GLIFREDLDW
Experimental: as §1

[3] = target: T3, AMH truncated antigen 40-45 (human); assay: as above
T3 peptide: REDLDW
Experimental: as §1

[4] = target: T4, AMH truncated antigen 42-46 (human); assay: as above
T4 peptide: DLDWP
Experimental: as §1

[5] = target: T5, AMH truncated antigen 40-47 (human); assay: as above
T5 peptide: REDLDWPP
Experimental: as §1

[6] = target: T6, AMH truncated antigen 71-85 (human); assay: as above
T6 peptide: RVVGALSAYEQAFLG
Experimental: as §1

[7] = target: T7, AMH truncated antigen 31-42 (human); assay: as above
T7 peptide: AVGTSGLIFRED
Experimental: as §1

[8] = target: T8, AMH truncated antigen 38-45 (human); assay: as above
T8 peptide: IFREDLDW
Experimental: as §1

[9] = target: T9, AMH truncated antigen 40-46 (human); assay: as above
T9 peptide: REDLDWP
Experimental: as §1

[10] = target: T10, AMH truncated antigen 21-35 (human); assay: as above
T10 peptide: GTEALRAEEPAVGTS
Experimental: as §1

[11] = target: T11, AMH truncated antigen 41-46 (human); assay: as above
T11 peptide: EDLDWP
Experimental: as §1

[12] = target: T12, AMH truncated antigen 43-51 (human); assay: as above
T12 peptide: LDWPPGSPQ
Experimental: as §1

[13] = target: T13, AMH truncated antigen 31-43 (human); assay: as above
T13 peptide: AVGTSGLIFREDL
Experimental: as §1

[14] = target: T14, AMH truncated antigen 37-44 (human); assay: as above
T14 construct: Printed with a blank (LIFR EDLD)
T14 peptide: LIFREDLD
Experimental: as §1

[15] = target: T15, AMH truncated antigen 43-50 (human); assay: as above
T15 peptide: LDWPPGSP
Experimental: as §1

[16] = target: T16, AMH3647-19 (Dog sequence) (Dog); assay: competition ELISA, AMH-coated plate
T16 peptide: GLLFQPDWDWPP
Experimental: (§2) 1. AMH antigen was diluted with carbonic acid buffer (20 mmol/L CB, pH 9.6) and then coated on a polyvinyl chloride plate. In the pretreatment, the antibody purified by the protein A column and the synthesized short peptides with different human AMH36-47 amino acid mutations (see Table 6 for each synthesized sequence) were subjected to proportion incubation (100 ng/ml antibody: 50 ug/ml truncated antigen) for 30 minutes, that were test samples; the control sample was (100 ng/ml antibody: PBS) and incubated for 30 minutes, and then the test samples after incubation and the control sample were added to AMH antigen plate and incubated for 30 minutes, the plate was washed for 5 times, added with GAM-HRP (1/5000 dilution) and incubated for 30 minutes, the plate was washed for 5 times, and the substrate was added and incubated for 15 minutes. The values under wavelength of 450/620 were read by microplate reader, and the detected OD values were finally calculated and analyzed. The calculation formula was: (control sample OD value−test sample OD value)/control sample OD value, and the criterion for determination was as follows: 90% or more, which represented that there was cross-reaction.

[17] = target: T17, AMH3647-23 (Cattle sequence) (Cattle); assay: competition ELISA, AMH-coated plate
T17 peptide: ALIFQQAWDWPL
Experimental: as §2

[18] = target: T18, AMH3647-22 (Mouse sequence) (Mouse); assay: competition ELISA, AMH-coated plate
T18 peptide: GLIFLEDELWPP
Experimental: as §2

[19] = target: T19, AMH3647-25 (Horse sequence) (Horse); assay: competition ELISA, AMH-coated plate
T19 peptide: GLIFHQDWDWPP
Experimental: as §2

[20] = target: T20, AMH truncated antigen 26-85 aa (human); assay: competition ELISA, antibody preincubated with target, AMH-coated plate
T20 peptide: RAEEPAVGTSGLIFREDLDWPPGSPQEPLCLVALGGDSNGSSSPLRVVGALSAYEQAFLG

[21] = target: T21, AMH truncated antigen 171-270aa (human); assay: as above
T21 peptide: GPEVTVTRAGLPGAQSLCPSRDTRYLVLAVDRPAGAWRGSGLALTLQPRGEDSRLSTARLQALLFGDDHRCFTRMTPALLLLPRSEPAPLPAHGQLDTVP

[22] = target: T22, AMH truncated antigen 426-525aa (human); assay: as above
T22 peptide: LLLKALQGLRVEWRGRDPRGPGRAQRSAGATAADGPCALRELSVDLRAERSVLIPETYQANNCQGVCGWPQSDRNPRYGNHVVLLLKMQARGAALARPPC

[23] = target: T23, AMH truncated antigen 341-440aa (human); assay: as above
T23 peptide: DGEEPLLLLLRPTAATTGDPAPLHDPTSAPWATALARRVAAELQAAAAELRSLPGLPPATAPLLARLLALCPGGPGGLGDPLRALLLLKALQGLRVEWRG

percent inhibition [1]: 9%
percent inhibition [2]: 94%
percent inhibition [3]: -14%
percent inhibition [4]: -10%
percent inhibition [5]: -19%
percent inhibition [6]: 21%
percent inhibition [7]: 16%
percent inhibition [8]: 92%
percent inhibition [9]: -2%
percent inhibition [10]: 10%
percent inhibition [11]: 15%
percent inhibition [12]: -10%
percent inhibition [13]: 25%
percent inhibition [14]: 24%
percent inhibition [15]: 17%
binding result [16]: no binding (tested: 50 ug/ml peptide)
binding result [17]: no binding (tested: 50 ug/ml peptide)
binding result [18]: no binding (tested: 50 ug/ml peptide)
binding result [19]: no binding (tested: 50 ug/ml peptide)
percent inhibition [20]: 99%
percent inhibition [21]: 0%
percent inhibition [22]: 1%
percent inhibition [23]: 10%
B1: monoclonal antibody C9F2-2 (antibody, V domains shown)
VH: EVQLVESGGGLVKPGGSLKLSCAASGFAFSTYDMSWVRQTPEKRLEWVAYISPGGGATYYPDTVKGRFTISRDNAKNTLYLQMTSLKSEDTAMYYCAGRRDYYGMDYWGQGTSVTVSS
VL: DVVMTQTPLSLPVSLGDQASISCRSSQSLVHSNGNTYLHWYLQKPGQSPKLLIYKVSNRFSGVPDRFSGSGSGTDFTLKISRVEAEDLGVYFCSQSTHVPWTFGGGTKLEIK
notes: Mouse hybridoma antibody purified from ascites; the tie is indirect; also called hybridoma CCTCC NO: C2018183
